Measured values taken from patent publication US20200231693A1 (Janssen / Centocor, published 2020).
Values belong to the binder of their own block, whether it stands above or below them.

How the values were obtained:
[1] = molecular target: T1, human FcγRIIB (NM_004001) (human, UniProt P31994 43-310); assay: flow cytometry on Expi293F cells transfected with FcγRIIB
T1 construct: also called FcγRIIB expressed on transfected Expi293F cells
T1 sequence: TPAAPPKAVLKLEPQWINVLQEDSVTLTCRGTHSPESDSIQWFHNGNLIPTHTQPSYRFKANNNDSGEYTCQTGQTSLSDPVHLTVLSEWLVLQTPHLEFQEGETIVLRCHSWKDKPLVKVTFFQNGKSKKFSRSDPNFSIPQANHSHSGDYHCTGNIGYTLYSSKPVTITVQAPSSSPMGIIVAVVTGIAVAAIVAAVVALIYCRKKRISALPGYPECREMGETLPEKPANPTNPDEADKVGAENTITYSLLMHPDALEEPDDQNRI
Protocol: (§1) Plasmids expressing cDNAs encoding human FcγRI (NM_000566) (SEQ ID NO: 59), FcγRIIA (NM_021642) (SEQ ID NO: 60), FcγRIIB (NM_004001) (SEQ ID NO: 61), and FcγRIIIA (NM_000569) (SEQ ID NO: 62) (Origene) were transiently transfected into Expi293F cells by Expifectmine293 transfection kit (Life Technologies). Flow cytometry assays were performed 48 h after transfection.
(§2) 2×10⁵ cells per well were seeded in 96-well plate and blocked in BSA Stain Buffer (BD Biosciences, San Jose, USA) for 30 min at 4° C. Cells were incubated with test antibody on ice for 1.5 hour at 4° C. After being washed twice with BSA stain buffer, the cells were incubated with R-PE labeled anti-human or anti-mouse IgG secondary antibody (Jackson Immunoresearch Laboratories) for 45 min at 4° C. The cells were washed twice in stain buffer and then resuspended in 150 μL of Stain Buffer containing 1:200 diluted DRAQ7 live/dead stain (Cell Signaling Technology, Danvers, USA). PE and DRAQ7 signals of the stained cells were detected by Miltenyi MACSQuant flow cytometer (Miltenyi Biotec, Auburn, USA) using B2 and B4 channel respectively. Live cells were gated on DRAQ7 exclusion and the geometric mean fluorescence signals were determined for at least 10,000 live events collected. FlowJo software (Tree Star) was used for analysis. Data was plotted as the logarithm of antibody concentration versus mean fluorescence signals. Nonlinear regression analysis was performed by GraphPad Prism 6 (GraphPad Software, Inc.) and EC₅₀ values were calculated.

human OX40 (CD134) = molecular target: T2, human OX40 (CD134) (human, UniProt P43489 29-277); assay: NanoBRET PPI assay on HEK-Blue: OX40 cells (discussion)
T2 construct: also called HEK-Blue: OX40 cells; transfected OX40 receptor
T2 sequence: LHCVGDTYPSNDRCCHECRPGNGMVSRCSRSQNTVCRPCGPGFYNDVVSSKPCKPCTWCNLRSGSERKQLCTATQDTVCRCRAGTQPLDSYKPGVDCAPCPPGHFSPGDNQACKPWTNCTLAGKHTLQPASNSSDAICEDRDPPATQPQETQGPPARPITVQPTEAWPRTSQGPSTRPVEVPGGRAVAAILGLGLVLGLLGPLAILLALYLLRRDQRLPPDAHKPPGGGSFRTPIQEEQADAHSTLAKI
Protocol: The next day, equal concentrations of Nanoluc-tagged antibody (donor) and Halotag-tagged antibody (acceptor) in 50 μl assay medium (Opti-MEM I reduced serum medium, no phenol red plus 4% FBS) were applied to the cells. Halotag 618 ligand diluted 1:1000 in 50 μl assay medium were added in experimental well, and a no ligand control well was also set up by diluting DMSO 1:1000 in assay medium. After incubation at 37° C. for 30 min, the cells were washed twice with assay medium and resuspended in 100 μl assay medium. 25 μl Nano-Glo substrate, diluted 1:200 in assay medium without FBS, was added to each well. After shaking for 30 seconds, the donor emission (460 nm) and acceptor emission (618 nm) were measured by Envision. Raw NanoBRET ratio values with milliBRET units (mBU) were calculated as RawBRET=618 nmEm/460 nmEm*1000. To factor in donor-contributed background or bleed through, Corrected NanoBRET ratio values with milliBRET units was calculated as CorrectedBRET=RawBRETₑₓₚₑᵣᵢₘₑₙₜₐₗ sample−RawBRET_{no-ligand control sample}, which reflects energy transfer from a bioluminescent protein donor to a fluorescent protein acceptor due to protein-protein interactions.
To evaluate whether the engineered antibodies multimerize upon binding antigens at the cell surface a NanoBRET™ protein-protein interaction (PPI) assay was conducted. This assay is a proximity-based assay that detects protein-protein interactions by measuring energy transfer from a bioluminescent protein donor to a fluorescent protein acceptor. […] NanoBRET PPI assays were performed by applying the donor and acceptor antibodies to HEK-Blue: OX40 cells and the calculated corrected NanoBRET ratios reflect the association of multimerized antibody.

[2] = molecular target: human FcγRIIIA (NM_000569) (human, UniProt P08637 17-254); assay: flow cytometry on Expi293F cells transfected with FcγRIIIA
Sequence of human FcγRIIIA (NM_000569) (P08637 17-254 limits assumed): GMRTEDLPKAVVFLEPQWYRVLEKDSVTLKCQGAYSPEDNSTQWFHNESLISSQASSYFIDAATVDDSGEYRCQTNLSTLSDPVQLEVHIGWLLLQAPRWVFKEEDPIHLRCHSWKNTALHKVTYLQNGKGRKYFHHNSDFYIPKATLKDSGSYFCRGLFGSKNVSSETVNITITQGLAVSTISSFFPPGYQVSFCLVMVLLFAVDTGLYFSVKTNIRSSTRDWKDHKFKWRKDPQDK
Protocol: as §1, §2

[3] = molecular target: the molecule itself; assay: SEC, self-association in solution
human FcγRI (NM_000566) = human FcγRI (NM_000566) (human, UniProt P12314 16-374); assay: flow cytometry on Expi293F cells transfected with FcγRI
Sequence of human FcγRI (NM_000566) (P12314 16-374 limits assumed): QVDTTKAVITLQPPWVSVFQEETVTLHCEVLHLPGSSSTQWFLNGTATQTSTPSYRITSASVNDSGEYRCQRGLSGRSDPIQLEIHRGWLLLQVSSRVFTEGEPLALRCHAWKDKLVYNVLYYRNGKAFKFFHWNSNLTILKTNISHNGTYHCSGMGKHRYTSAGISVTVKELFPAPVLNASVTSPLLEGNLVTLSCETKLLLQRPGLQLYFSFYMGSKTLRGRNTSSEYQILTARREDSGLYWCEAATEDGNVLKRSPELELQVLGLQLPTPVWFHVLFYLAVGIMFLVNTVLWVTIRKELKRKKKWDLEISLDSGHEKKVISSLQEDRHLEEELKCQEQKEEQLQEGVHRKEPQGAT
Protocol: as §1
as §2, with “The cells were washed twice in stain buffer and then resuspended in 150 μL of Stain Buffer containing 1:200 diluted DRAQ7 live/dead stain (Cell Signaling Technology, Danvers, USA).” left out, “FlowJo software (Tree Star) was used for analysis.” left out

FcγRIIB on Raji cells = molecular target: T3, FcγRIIB on Raji cells (human, UniProt P31994 43-310); assay: cell-based or functional assay
T3 sequence (looked up): T1 sequence

[4] = molecular target: T1, human FcγRIIB (NM_004001); assay: binding to transfected Expi293F cells (data not shown)
[5] = molecular target: T4, human FcγRIIA (NM_021642) (human, UniProt P12318 36-317); assay: flow cytometry on Expi293F cells transfected with FcγRIIA (R131 allotype per text)
T4 construct: also called FcγRIIA^R131; R131 allotype of FcγRIIA
T4 sequence: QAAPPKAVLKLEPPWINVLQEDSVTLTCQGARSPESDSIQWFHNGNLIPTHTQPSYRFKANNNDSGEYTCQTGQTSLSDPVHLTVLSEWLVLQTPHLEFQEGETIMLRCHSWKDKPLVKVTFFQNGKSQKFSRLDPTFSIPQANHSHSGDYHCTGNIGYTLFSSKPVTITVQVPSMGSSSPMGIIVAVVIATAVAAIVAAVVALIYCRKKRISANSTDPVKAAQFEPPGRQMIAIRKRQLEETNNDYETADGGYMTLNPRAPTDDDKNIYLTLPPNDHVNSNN
Protocol: as §1
as §2, with “The cells were washed twice in stain buffer and then resuspended in 150 μL of Stain Buffer containing 1:200 diluted DRAQ7 live/dead stain (Cell Signaling Technology, Danvers, USA).” left out, “FlowJo software (Tree Star) was used for analysis.” left out

B2: OX40SF2IgG1E345R/E430G (antibody)
heavy: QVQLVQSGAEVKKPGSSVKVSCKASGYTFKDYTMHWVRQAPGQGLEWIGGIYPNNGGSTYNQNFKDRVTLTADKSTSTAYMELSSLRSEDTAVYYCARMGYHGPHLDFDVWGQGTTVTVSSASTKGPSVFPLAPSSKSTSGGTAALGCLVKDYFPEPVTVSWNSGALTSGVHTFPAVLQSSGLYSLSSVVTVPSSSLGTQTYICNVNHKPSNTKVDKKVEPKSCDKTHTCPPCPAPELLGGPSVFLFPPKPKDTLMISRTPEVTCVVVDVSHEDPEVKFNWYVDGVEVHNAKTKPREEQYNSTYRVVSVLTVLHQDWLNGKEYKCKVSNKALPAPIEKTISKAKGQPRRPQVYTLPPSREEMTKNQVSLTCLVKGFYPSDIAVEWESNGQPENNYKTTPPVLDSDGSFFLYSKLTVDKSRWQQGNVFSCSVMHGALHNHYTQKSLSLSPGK
VL: DIQMTQSPSSLSASVGDRVTITCKASQDVGAAVAWYQQKPGKAPKLLIYWASTRHTGVPSRFSGSGSGTDFTLTISSLQPEDFATYYCQQYINYPLTFGGGTKVEIK
notes: Full IgG1; In the NanoBRET assay the light chains carried a C-terminal Nanoluc or HaloTag
binding result (human OX40 (CD134)): binds

B3: OX40SF2IgG1 (antibody)
heavy: not shown
VL: B2 VL
notes: Full IgG1, wild-type Fc; also called SF2 antibody with native human IgG1 Fc; wild-type IgG1
EC50 [2]: 0.744 µg/mL
binding result [3]: no binding
EC50 (human FcγRI (NM_000566)): 0.326 µg/mL

B6: OX40SF2IgG1E345R (antibody)
heavy: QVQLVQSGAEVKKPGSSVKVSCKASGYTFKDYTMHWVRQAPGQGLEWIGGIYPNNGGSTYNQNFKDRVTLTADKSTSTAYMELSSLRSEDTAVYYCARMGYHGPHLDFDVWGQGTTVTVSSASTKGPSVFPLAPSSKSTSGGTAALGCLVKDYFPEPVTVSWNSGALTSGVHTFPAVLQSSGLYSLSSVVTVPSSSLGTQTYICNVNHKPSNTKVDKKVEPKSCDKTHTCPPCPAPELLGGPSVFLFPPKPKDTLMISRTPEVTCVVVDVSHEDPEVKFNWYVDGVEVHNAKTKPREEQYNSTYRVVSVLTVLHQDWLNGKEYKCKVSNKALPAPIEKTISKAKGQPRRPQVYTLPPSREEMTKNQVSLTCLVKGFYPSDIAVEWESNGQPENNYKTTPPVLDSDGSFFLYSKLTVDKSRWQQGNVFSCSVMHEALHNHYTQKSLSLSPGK
VL: B2 VL
notes: as for B2
HEK-Blue NFκB reporter assay, co-culture with Raji cells against no Raji cells (FcγRIIB on Raji cells): > 2 fold
binding result (human OX40 (CD134)): binds

B8: OX40SF2IgG1S267E/L328F (antibody, name in EU numbering)
heavy: not shown
VL: B2 VL
notes: Full IgG1; Positions are EU Index, not positions on the UniProt entry
HEK-Blue NFκB reporter assay, co-culture with Raji cells; efficacy at 1000 ng/ml against OX40 ligand at the same concentration (FcγRIIB on Raji cells): > 2 fold
binding result [2]: no binding (tested: 1 ng/ml to 10000 ng/ml)
EC50 [1]: 0.459 µg/mL
EC50 [5]: 0.216 µg/mL
fold better potency (against OX40SF2IgG1, reference implied) [5]: 20 fold

Second part, led by results:

EC50 [1]: 0.431 µg/mL
B1: anti-FcγRIIB antibody 2B6 (antibody)
chain 1: QVQLQQPVTELVRPGASVMLSCKASDYPFTNYWIHWVKQRPGQGLEWIGVIDPSDTYPNYNKKFKGKATLTVVVSSSTAYMQLSSLTSDDSAVYYCARNGDSDYYSGMDYWGQGTSVTVSS
chain 2: DILLTQSPAILSVSPGERVSFSCRTSQSIGTNIHWYQQRTNGFPRLLIKNVSESISGIPSRFSGSGSGTDFILSINSVESEDIADYYCQQSNTWPFTFGGGTKLEIK

HEK-Blue NFκB reporter assay, co-culture with Raji cells; efficacy at 1000 ng/ml against OX40 ligand at the same concentration (FcγRIIB on Raji cells): > 2 fold
EC50 [1]: 0.502 µg/mL
B4: OX40SF2IgG1V12 (antibody, name in EU numbering)
heavy: QVQLVQSGAEVKKPGSSVKVSCKASGYTFKDYTMHWVRQAPGQGLEWIGGIYPNNGGSTYNQNFKDRVTLTADKSTSTAYMELSSLRSEDTAVYYCARMGYHGPHLDFDVWGQGTTVTVSSASTKGPSVFPLAPSSKSTSGGTAALGCLVKDYFPEPVTVSWNSGALTSGVHTFPAVLQSSGLYSLSSVVTVPSSSLGTQTYICNVNHKPSNTKVDKKVEPKSCDKTHTCPPCPAPDLLGDDSVFLFPPKPKDTLMISRTPEVTCVVVDVSDEDGEVKFNWYVDGVEVHNAKTKPREEQYNSTYRVVSVLTVLHQDWLNGKEYKCKVSNKALPRPIEKTISKAKGQPREPQVYTLPPSRDELTKNQVSLTCLVKGFYPSDIAVEWESNGQPENNYKTTPPVLDSDGSFFLYSKLTVDKSRWQQGNVFSCSVMHEALHNHYTQKSLSLSPGK
VL: B2 VL
notes: Full IgG1; Positions are EU Index
binding result [2]: no binding (tested: 1 ng/ml to 10000 ng/ml)

binding result [4]: binds
B5: OX40SF2IgG1E345R/E430G/S440Y (antibody)
heavy: QVQLVQSGAEVKKPGSSVKVSCKASGYTFKDYTMHWVRQAPGQGLEWIGGIYPNNGGSTYNQNFKDRVTLTADKSTSTAYMELSSLRSEDTAVYYCARMGYHGPHLDFDVWGQGTTVTVSSASTKGPSVFPLAPSSKSTSGGTAALGCLVKDYFPEPVTVSWNSGALTSGVHTFPAVLQSSGLYSLSSVVTVPSSSLGTQTYICNVNHKPSNTKVDKKVEPKSCDKTHTCPPCPAPELLGGPSVFLFPPKPKDTLMISRTPEVTCVVVDVSHEDPEVKFNWYVDGVEVHNAKTKPREEQYNSTYRVVSVLTVLHQDWLNGKEYKCKVSNKALPAPIEKTISKAKGQPRRPQVYTLPPSREEMTKNQVSLTCLVKGFYPSDIAVEWESNGQPENNYKTTPPVLDSDGSFFLYSKLTVDKSRWQQGNVFSCSVMHGALHNHYTQKYLSLSPGK
VL: B2 VL
notes: In the NanoBRET assay the light chains carried a C-terminal Nanoluc or HaloTag; also called OX40SF2E345R/E430G/S440Y
binding result [3]: binds

binding result (human OX40 (CD134)): binds
B7: OX40SF2IgG1E430G (antibody)
heavy: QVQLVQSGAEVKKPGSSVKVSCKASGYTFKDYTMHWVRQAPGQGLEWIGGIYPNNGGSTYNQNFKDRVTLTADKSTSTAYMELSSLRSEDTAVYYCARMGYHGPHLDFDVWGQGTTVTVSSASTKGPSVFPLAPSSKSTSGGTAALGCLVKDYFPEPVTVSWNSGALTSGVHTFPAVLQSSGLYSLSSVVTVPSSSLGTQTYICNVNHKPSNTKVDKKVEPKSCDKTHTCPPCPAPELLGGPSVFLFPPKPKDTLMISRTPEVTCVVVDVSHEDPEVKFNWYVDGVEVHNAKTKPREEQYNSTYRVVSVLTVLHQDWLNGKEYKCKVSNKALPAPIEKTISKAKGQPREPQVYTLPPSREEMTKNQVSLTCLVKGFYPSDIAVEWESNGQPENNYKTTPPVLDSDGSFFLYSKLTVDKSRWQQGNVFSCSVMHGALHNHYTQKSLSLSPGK
VL: B2 VL
notes: as for B2
